Tests used:
[1] = target: pAcGFP1-53 (positive control bait) (UniProt P02340); experiment: co-IP; Matchmaker Co-IP system in co-transfected HEK 293 cells (pAcGFP1 bait, ProLabel prey); read-out by ProLabel enzyme complementation, luminescence (RLU); fold induction 60 min after substrate against the experimental control (pAcGFP1-TRIB2 and ProLabel-empty vector)
[2] = target: T1, Tribbles pseudokinase 2 (TRIB2), AcGFP1 fusion in HEK 293 cells (pAcGFP1-TRIB2) (bovine, UniProt Q5GLH2 1-343); experiment: as above; conditions: partners not purified
T1 construct: bovine TRIB2 (NM_178317.3); also called TRIB2 bait plasmid; source: HEK 293, transfected, in lysate
T1 sequence (looked up): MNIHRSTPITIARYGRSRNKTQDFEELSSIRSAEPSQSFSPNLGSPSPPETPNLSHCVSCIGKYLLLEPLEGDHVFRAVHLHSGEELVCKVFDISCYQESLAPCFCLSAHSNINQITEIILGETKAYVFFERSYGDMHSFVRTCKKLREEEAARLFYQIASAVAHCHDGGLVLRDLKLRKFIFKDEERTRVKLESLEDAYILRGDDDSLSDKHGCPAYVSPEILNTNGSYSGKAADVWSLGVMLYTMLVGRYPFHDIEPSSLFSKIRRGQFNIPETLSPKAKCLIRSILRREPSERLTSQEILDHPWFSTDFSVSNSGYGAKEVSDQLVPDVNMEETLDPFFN

Chain of pAcGFP1-53 (positive control bait) (P02340 whole entry, the tested form may be a part): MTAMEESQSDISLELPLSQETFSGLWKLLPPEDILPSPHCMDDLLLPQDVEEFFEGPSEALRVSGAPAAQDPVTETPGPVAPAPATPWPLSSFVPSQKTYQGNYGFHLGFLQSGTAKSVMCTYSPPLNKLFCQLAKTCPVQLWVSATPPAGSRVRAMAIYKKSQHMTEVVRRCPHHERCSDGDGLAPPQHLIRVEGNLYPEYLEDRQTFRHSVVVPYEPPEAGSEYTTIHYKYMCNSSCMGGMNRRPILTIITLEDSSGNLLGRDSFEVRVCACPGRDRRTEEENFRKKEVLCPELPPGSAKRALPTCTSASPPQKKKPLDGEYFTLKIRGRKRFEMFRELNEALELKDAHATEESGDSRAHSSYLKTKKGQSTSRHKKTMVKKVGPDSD

Molecule: ProLabel-T (positive control prey) (natural protein)
- fold induction of ProLabel enzymatic activity against the experimental control [1]: 4.7 fold

B1: inhibin subunit beta A (INHBA), ProLabel prey in HEK 293 cells (natural protein, Bos taurus, UniProt P07995 21-425, looked up)
chain: SPTPGSEGHSAAPDCPSCALATLPKDVPNSQPEMVEAVKKHILNMLHLKKRPDVTQPVPKAALLNAIRKLHVGKVGENGYVEIEDDIGRRAEMNELMEQTSEIITFAESGTARKTLHFEISKEGSDLSVVERAEIWLFLKVPKANRTRSKVTIRLFQQQKHLQGSLDAGEEAEEVGLKGEKSEMLISEKVVDARKSTWHIFPVSSCIQRLLDQGKSSLDIRIACEQCQETGASLVLLGKKKKKEEEGEGKKRDGEGGAGGDEEKEQSHRPFLMLQARQSEDHPHRRRRRGLECDGKVNICCKKQFFVSFKDIGWNDWIIAPSGYHANYCEGECPSHIAGTSGSSLSFHSTVINHYRMRGHSPFANLKSCCVPTKLRPMSMLYYDDGQNIIKKDIQNMIVEECGCS
notes: Bos taurus inhibin subunit beta A; Seen at around 50 kDa after co-IP and at 44 kDa in extracts not subjected to co-IP; The insert may be the cDNA fragment found in the two-hybrid screen; source: HEK 293, transfected, in lysate
- fold induction of ProLabel enzymatic activity against the experimental control [2]: 9.2 fold

B2: inositol polyphosphate phosphatase-like 1 (INPPL1), ProLabel prey in HEK 293 cells (natural protein, Bos taurus, UniProt E1BBJ7 1-1264, looked up)
chain: MASACGAPGPGGAGPGAALGSPAPAWYHRDLSRAAAEELLARAGRDGSFLVRDSESVAGAFALCVLYQKHVHTYRILPDGEDFLAVQTSQGVPVRRFQTLGELISLYAQPNQGLVCALLLPVEREREPDPPDDRDASDGEDEKPPLPPRSGSTSISAPMGPSSPPAAPETPTTPAAESAPNGLSTVSHEYLKGSYGLDLEAVRGGASNLPHLTRTLATSCRRLHSEVDKVLSGLEILSKVFDQQSSPMVTRLLQQQNPPQTGEQELESLVLKLSVLKDFLSGIQKKALKALQDMSSTAPPAPLQPSTRKAKTIPVQAFEVKLDVTLGDLTKIGKSQKFTLSVDVEGGRLVLLRRQRDSQEDWTTFTHDRIRQLIKSQRVQNKLGVVFEKEKDRTQRKDFIFVSARKREAFCQLLQLMKNKHSKQDEPDMISIFIGTWNMGSVPPPKNVTSWFTSKGLGKTLDEVTVTIPHDIYVFGTQENSVGDREWLDLLRGGLKELTDLDYRPIAMQSLWNIKVAVLVKPEHENRISHVSTSSVKTGIANTLGNKGAVGVSFMFNGTSFGFVNCHLTSGNEKTARRNQNYLDILRLLTLGDRQLSAFDISLRFTHLFWFGDLNYRLDMDIQEILNYISRKEFEPLLRVDQLNLEREKHKVFLRFSEEEISFPPTYRYERGSRDTYAWHKQKPTGVRTNVPSWCDRILWKSYPETHIICNSYGCTDDIVTSDHSPVFGTFEVGVTSQFISKKGLSKTSDQAYIEFESIEAIVKTASRTKFFIEFYSTCLEEYKKSFENDAQSSDNINFLKVQWSSRQLPTLNPILADIEYLQDQHLLLTVKSMDGYESYGECVVALKSMIGSTAQQFLTFLSHRGEETGNIRGSMKVRVPTERLGTRERLYEWISIDKDEAGAKSKAPSVSRGSQDPRSGSRKPASTEASCPLSKLFEEPEKPPPTGRPPAPPRAAPREEPLTPRLKPEGAPELEGVVAPPPKNSFNNPAYYVLEGVPHQLLPPEPPSPARAPVPPATKNKVAITVPAPQLGRHRPPRAGEGSSSDEDSGGTLPPPDFPPPPLPDSAIFLPPGLDPLPGPVIRGRSGGEARGPPPPKAHPRPPLPPGPSPASTFLGDVASGDDRSCSVLQMAKTLSEVDYAPAGPGRAMLLPGPLELQPPRGLPSDYGRPLSFPPPRIRESIQEDLAEEAPCPQVGRAGGLGEAGMGAWLRAIGLERYEEGLVHNGWDDLEFLSDITEEDLEEAGVQDPAHKRLLLDTLQLSK
notes: Bos taurus inositol polyphosphate phosphatase-like 1; Bands at around 50 kDa and 100 kDa after co-IP, around 160 kDa in extracts not subjected to co-IP; The insert may be the cDNA fragment found in the two-hybrid screen; also called SHIP2; SH2-containing inositol 5'-phosphatase 2; source: HEK 293, transfected, in lysate
- fold induction of ProLabel enzymatic activity against the experimental control [2]: 2.3 fold

Source: article PMC7913596, “Tribbles Pseudokinase 2 (TRIB2) Regulates Expression of Binding Partners in Bovine Granulosa Cells” (International Journal of Molecular Sciences, 2021)
